Data as given in publication PMC4121545.

Test system: Lac-mCherry (lac repressor-mCherry fusion, dimeric) (Escherichia coli)
Experiment: in vitro transcription repression (indirect), global MWC fit
Conditions: no effector, R conformer (KRO); 20 mM Mg2+; 2 mM spermidine; 20 mM Tris-HCl pH 7.9, 20 mM MgCl2, 1 mM DTT, 2 mM spermidine-HCl, NTPs (0.5 mM GTP/ATP/UTP, 0.25 mM CTP), 37 C, 30 min

Substance: O1 operator reporter, linearized 450 bp
- Ka: 0.42 nM⁻¹
